From US20210198347A1 (Chugai, published 2021) come the findings set out here.

Test [1] deals with T1, Native proenzyme human C1s (Comptech A103) (human, UniProt P09871 16-688).
T1 construct: mature; Bought native protein; also called native human C1s Proenzyme; native human C1s proenzyme protein (CompTech)
T1 sequence (looked up): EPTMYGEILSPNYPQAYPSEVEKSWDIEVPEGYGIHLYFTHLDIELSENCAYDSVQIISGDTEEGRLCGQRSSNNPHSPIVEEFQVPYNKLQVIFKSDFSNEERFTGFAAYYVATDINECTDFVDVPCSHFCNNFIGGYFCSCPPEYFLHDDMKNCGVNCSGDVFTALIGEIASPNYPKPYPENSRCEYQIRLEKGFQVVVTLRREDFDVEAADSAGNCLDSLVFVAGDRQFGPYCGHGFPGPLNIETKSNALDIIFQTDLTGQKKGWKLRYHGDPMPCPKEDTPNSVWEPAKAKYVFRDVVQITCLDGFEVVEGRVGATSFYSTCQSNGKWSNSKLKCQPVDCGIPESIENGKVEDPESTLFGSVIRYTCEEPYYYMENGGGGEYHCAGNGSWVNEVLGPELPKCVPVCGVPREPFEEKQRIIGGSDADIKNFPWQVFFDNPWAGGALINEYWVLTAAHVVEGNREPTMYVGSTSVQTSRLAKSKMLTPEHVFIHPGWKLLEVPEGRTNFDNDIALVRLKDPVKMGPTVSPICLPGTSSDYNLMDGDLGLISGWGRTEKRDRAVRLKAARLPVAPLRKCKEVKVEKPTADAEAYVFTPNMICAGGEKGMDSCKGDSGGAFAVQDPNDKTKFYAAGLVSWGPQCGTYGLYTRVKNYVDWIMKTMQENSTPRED
Description: SPR (BIACORE T200, 37 degrees C, pH 7.4), antibody captured by protein A/G, C1s 50 nM. The protocol:
The binding specificities of the six C1s CUB1-EGF-CUB2 binders were determined at 37 degrees C. using BIACORE® T200 instrument (GE Healthcare). Recombinant Protein A/G (Pierce) was immobilized onto all flow cells of a CM4 sensor chip using an amine coupling kit (GE Healthcare). Antibodies and analytes were prepared in 7(+) buffer (20 mM ACES, 150 mM NaCl, 1.2 mM CaCl₂, 0.05% Tween 20, 0.005% NaN₃, pH 7.4). Each antibody was captured onto the sensor surface by protein A/G. Antibody capture levels were aimed at 100 resonance unit (RU). Native proenzyme human C1s (Comptech A103) (at 50 nM as a monomer) or recombinant human C1s CCP1-CCP2-SP-His (at 100 nM as a monomer) was injected, followed by dissociation. Sensor surface was regenerated each cycle with 10 mM Glycine-HCl pH 1.5. The six C1s CUB1-EGF-CUB2 binders bound to the native proenzyme human C1s, but not recombinant human C1s CCP1-CCP2-SP-His, which is a truncated protein lacking the CUB1-EGF-CUB2 domain.

Test [2] deals with T2, recombinant human C1s CCP1-CCP2-SP-His (human, UniProt P09871 292-688).
T2 construct: Truncated protein lacking the CUB1-EGF-CUB2 domain; also called human C1s CCP1-CCP2-SP M292-D688
T2 sequence: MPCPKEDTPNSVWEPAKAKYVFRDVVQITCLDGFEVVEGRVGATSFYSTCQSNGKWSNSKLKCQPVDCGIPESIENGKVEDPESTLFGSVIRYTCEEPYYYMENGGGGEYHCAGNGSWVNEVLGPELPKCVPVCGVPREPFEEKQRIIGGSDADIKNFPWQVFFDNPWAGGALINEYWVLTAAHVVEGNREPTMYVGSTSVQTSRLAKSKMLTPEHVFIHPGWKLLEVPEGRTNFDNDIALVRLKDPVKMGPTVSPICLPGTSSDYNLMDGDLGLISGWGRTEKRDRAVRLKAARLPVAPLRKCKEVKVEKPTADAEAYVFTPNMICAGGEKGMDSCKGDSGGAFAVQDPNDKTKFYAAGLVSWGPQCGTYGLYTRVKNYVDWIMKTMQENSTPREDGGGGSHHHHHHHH
The test is described as follows: SPR (BIACORE T200, 37 degrees C, pH 7.4, 1.2 mM CaCl2), antibody captured by protein A/G.

B1: COS0583gg-SG1148 (antibody, human IgG1, kappa, V domains shown)
VH: QSLEESGGRLVTPGTPLTLTCTVSGIDLSSYAMIWVRQAPGKGLEWIGIIYVRGSTYYASWAKDRFTISKTSTTVDLKITSPTTEDTATYFCARAYGGDTFSDGFDPWGPGTLVTVSS
VL: DPVMTQTPSSTSAAVGGTVTINCQSSQNVYGNNRLAWYQQKPGQPPKLLIYLASTLASGVPSRFRGNGSGTQFTLTISGVQCDDAATYYCAGGYRDDTNSFGGGTKVEIKR
notes: Constant regions as for m1; also called COS583; COS583gg(-SG1148)
For B1, the figures for the binding result in test [1] and in test [2] were “binds” and “no binding (tested: 100 nM)”, respectively.
